Experimental data taken from PMC5768801, “The PII signaling protein from red algae represents an evolutionary link between cyanobacterial and Chloroplastida PII proteins” (Scientific Reports, 2018).

Tests used:
[1] = test system: ScPipX; experiment: SPR analysis of PipX binding to PII proteins; parameters: species or system Synechocystis sp. PCC 6803; conditions: His-tagged ScPipX immobilized, 200 nM PII protein, ADP
Description: Additionally, we assessed whether PpPII could bind to PipX by surface plasmon resonance (SPR) spectroscopy (Supplementary Fig. S3C). The N-terminally His-tagged ScPipX was immobilized on a Ni-HTG sensor chip and probed with ScPII together with effector molecule ADP. Interaction between PpPII and PipX was not observed.
SPR experiments were conducted using a ProteOn XPR36 system (Bio-Rad) in HBS buffer (10 mM HEPES, 150 mM NaCl, 1 mM MgCl2, and 0.005% Tween 20, pH 7.5) at 25 °C. Immobilization of ligand, 1 µM His6-PipX (200 µl), was performed on a Ni^+-loaded HTG sensor chip (Bio-Rad Laboratories) in the vertical orientation into the channel L2, and the continuous running buffer was used at a flow rate of 30 µl/min. The immobilization level was approximately 3000 resonance units (RU). […] The binding of PII proteins to PipX was recorded as a response signal difference of L2 and L1. All binding sensorgrams were collected, processed and analyzed using the integrated ProteOn Manager software (Bio-Rad Laboratories).
(§1) Figure S3. […] Complex formation between PipX and ScPII (A) or PpPII (B) was assessed by pull-down. […] (C) Complex formation between PipX and PII proteins was assessed by SPR. […]

[2] = target: T1, ScNAGK (Synechocystis sp., UniProt P73326); experiment: Coupled NAGK activity assay, ScNAGK; format: biochemical, Synechocystis sp. PCC 6803
T1 sequence (P73326 1-297): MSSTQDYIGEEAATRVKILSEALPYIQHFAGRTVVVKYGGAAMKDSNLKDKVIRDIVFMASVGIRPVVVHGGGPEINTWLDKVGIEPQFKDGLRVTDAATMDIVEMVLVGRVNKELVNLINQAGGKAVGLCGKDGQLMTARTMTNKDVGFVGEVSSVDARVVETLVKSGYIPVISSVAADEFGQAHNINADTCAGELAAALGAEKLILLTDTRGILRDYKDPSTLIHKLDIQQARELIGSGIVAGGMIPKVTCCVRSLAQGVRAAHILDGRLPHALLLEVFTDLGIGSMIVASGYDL
Description: The assess the activity of ScNAGK was measured with an enzyme assay, in which the ADP production was coupled to the NADH oxidation by the auxiliary enzymes pyruvate kinase and lactate dehydrogenase according to previously described procedure[32],[50]. […] The oxidation reaction of NADH was recorded for 10 min using spectrophotometer (SPECORD 210 PLUS, Analytik Jena AG) at 340 nm. […] The NADH molar absorption coefficient is 6178 L mol^−1 cm^−1 for at 340 nm, which was used for calculation. […] From the velocity slopes, the enzymatic constants Km, Kcat and IC50 were calculated using the Graph-Pad Prism software (GraphPad Software, USA).

[3] = test system: PipX; experiment: Pull-down analysis of PipX binding to PII proteins; parameters: species or system Synechocystis sp. PCC 6803; conditions: 10 µM proteins, 1 mM ADP, Strep-Tactin column, Tricine-SDS-PAGE
Excerpt: In cyanobacteria, PipX is the second known receptor of PII signaling. We questioned whether red algal PII proteins have lost or retained the ability to bind to PipX. To test this possibility, we first analyzed complex formation using pull-down experiments (Supplementary Fig. S3A and B). The PII protein from Synechocystis sp. PCC 6803 (ScPII) was mixed with PipX in the presence of ADP and then the Strep-tagged PII was immobilized on the Strep-Tactin II column (Supplementary Fig. S3A). After extensive washes, the proteins were eluted with desthiobiotin and analyzed by Tricine-SDS-PAGE. Both proteins were detected in the elution. Thus, confirming previous studies[16]–[18], cyanobacterial PII was bound to PipX. When PpPII in the presence of PipX was immobilized on the column, no PipX signal was detected in the elution (Supplementary Fig. S3B).
For complex formation, the binding reactions were done in 300 μl of buffer (100 mM Tris HCl, pH 8.0, 150 mM NaCl, 1 mM EDTA) by adding 10 µM of purified proteins: His6-ScPipX and Strep-tag ScPII or Strep-tag PpPII. […] The eluted fractions were analyzed by Tricine-SDS PAGE[51] and stained with SimplyBlue™ SafeStain (Invitrogen).
as §1

B1: PpPII: PII from the red alga Porphyra purpurea, recombinant Strep-tagged or His-tagged protein (protein)
chain: MKKIEAIIRPFKLNEVKLALVKGGIGGMTVVKVSGFGRQKGQTERYKGSEYSIDIIDKIKIEIIVSDDKVNSITEIIIKTAKTGEIGDGKIFISDVEQVIRIRTNDLNSAAL
modifications: left off: Strep-tag II, C-terminal, kept
notes: PII from the red alga Porphyra purpurea, recombinant Strep-tagged or His-tagged protein
- interaction with PipX (SPR) [1]: not observed
- raise of the IC50 for arginine on addition of PpPII to ScNAGK ([2]; 50 mM NAG, 10 mM ATP, without glutamine): approximately 4 fold
- increase of the overall NAGK catalytic efficiency by complex formation with PpPII ([2]; PpPII-complexed versus free ScNAGK): about 4 fold
- complex formation with PipX (pull-down) [3]: did not interact with PipX
